Measurements published in IntAct's records for PubMed 24469404.

B1: TERF1-interacting nuclear factor 2 (Mus musculus), Q9QXG9 (parent)
chain: MAPPPGVGPASLRFAAAASWLVVRRRRVEHFPKVVEFLQSLRAAAPGLVCYRHHERLCMSLKAKVVVELILQARPWDQVLNALKHHFPAESRTTKEDRKLLEARENFCLLVKHLSEDPPSSLQELEQDYGESFLVAMEKLLFEYLCQLEKALPPVRAQELQDALSWSQPGSFITSSVALHQYGMDMGWTFPESSTSGSGNLIEPMEESPHQQTRPAFHSPLPKAKLGPHQPASLEHPEHLAGHRFNLAPLGKRKSRSHWTSAKACHKERPTVMLLPFRNMGLPAQDLSNPKSREEPGAASAASVGTEPVCTEEAKTPSRPLGKRALEETPPDSPAASRRTV
partner: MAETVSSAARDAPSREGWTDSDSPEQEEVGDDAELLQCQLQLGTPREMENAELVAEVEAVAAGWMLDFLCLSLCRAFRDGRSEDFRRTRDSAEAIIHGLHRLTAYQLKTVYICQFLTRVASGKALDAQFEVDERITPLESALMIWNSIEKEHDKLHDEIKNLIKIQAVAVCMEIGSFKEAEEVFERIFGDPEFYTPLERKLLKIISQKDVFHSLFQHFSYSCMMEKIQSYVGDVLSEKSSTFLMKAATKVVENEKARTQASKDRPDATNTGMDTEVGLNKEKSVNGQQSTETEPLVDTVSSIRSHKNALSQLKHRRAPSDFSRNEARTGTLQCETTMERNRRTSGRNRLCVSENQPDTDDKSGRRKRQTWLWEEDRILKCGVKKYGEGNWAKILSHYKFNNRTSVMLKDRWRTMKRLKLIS

Variants of: B1
Conditions: with terf1_mouse Terf1, P70371

| effect of a mutation on the interaction | Variant |
| --- | --- |
| disrupting interaction | L247E |
